Experimental findings from US7732563B2, “Cloning, sequencing and expression of a gene encoding an eukaryotic amino acid racemase, and diagnostic, therapeutic, and vaccination applications of parasite and viral mitogens” (priority 1999, dated 2010) are described below.

The target in one data set is T1, rTcPA45 proline racemase (Trypanosoma cruzi, UniProt Q4DA80).
T1 construct: made in house; host or cells: E. coli (pET28b(+))
Format: biochemical. The protocol:
To investigate the genomic organization and transcription of the Tc45 gene, Southern and Northern blot analyses were done. FIG. 4 depicts the results of characterization of rTcPA45 activities. FIG. 4, part a, is an 8% SDS-PAGE gel of rTcPA45 (Coomasie blue staining). Part b depicts the proliferative activity of total splenocytes (5×10^4 cells/well) in the presence of increasing concentrations of rTcPA45 (μg/ml). […] Reaction conditions were: 0.2 M Na-acetate/25 mM β-mercaptoethanol buffer, pH6, rTcPA45 (3 μg/ml), 30 min incubation at 37° C. in 500 μl. The reaction was stopped by incubating for 10 min at 80° C. […] Reactions were carried out for 30 min at 37° C. and stopped for 5 min at 80° C. All reagents and inhibitors were purchased from Sigma. The shift in optical rotation was measured in a Polarimeter 241 MC (Perkin Elmer).
3 μg of rTcPA45 was diluted in 500 μl of buffer (0.2M NaOAc, […] β-mercaptoethanol, pH6.0) containing different concentrations of the substrate (10-80 mM or L- or D-proline). (See FIG. 4c.) The reaction was incubated for 30-60 minutes at 37° C. in a water bath, followed by heat inactivation of the enzyme for 10 minutes at 80° C. Each sample is diluted to 1.5 ml with water and the mixture submitted to measurement of optical rotation using a polarimeter, at 365 nm. A sample without enzyme is used as a control. For optimal pH determination, buffer systems with NaOAc, phosphate, and Tris were used with pH ranging from 4.0-8.2. Curve of temperature was performed between 27° C. to 47° C.
The percent of racemization of different concentrations of L-proline, D-proline, L-hydroxy-proline and D-hydroxy-proline substrates was calculated by incubating a 500-μl mixture of 3 μg TcPA45 and 10-80 mM substrate in 0.2 M sodium acetate and 25 mM β-mercaptoethanol, pH 6, for 30 min at 37° C. The reaction was stopped by incubation for 10 min at 80° C. Water (1 ml) was then added, and the optical rotation was measured in polarimeter 241 MC (Perkin Elmer, Montignyle Bretonneux, France) at a wavelength of 365 nm, in a cell with a path length of 10 cm. The percent inhibition of racemization of 80 mM L-proline was determined in the presence of different concentrations of several specific and nonspecific inhibitors ranging in concentration from 6 mM to 100 mM. The percent racemization of 80 mM L-proline as a function of pH was determined using 0.2 M sodium acetate, potassium phosphate and Tris-HCl buffers containing 25 mM β-mercaptoethanol; reactions were incubated for 30 min at 37° C. as described above. All reagents and inhibitors were purchased from Sigma.

In the next data set the test system is total spleen cells. Briefly: In vitro proliferation assay of splenocytes (3H-thymidine uptake). Type of data set: cell-based, mouse. On the procedure:
Briefly, freshly recovered splenocytes from 8 week old male Balb/c mice seeded at a concentration of 5×10^4 cells/well were incubated for 24, 48 and 72 h in 5% FCS RPMI-1640 medium. A 16 h ^3H-thymidine pulse at 1 μCi/well was performed before harvesting. ^3H-Thymidine uptake was determined in a beta-plate liquid scintillation counter (LKB-Wallac). All points were done in triplicate and the corresponding standard deviation calculated. For comparison, ^3H-thymidine uptake after 48 h in the presence of ConA (10 μg/ml) and LPS (5 μg/ml) was 32000 c.p.m. and 3500 c.p.m., respectively. T-cell depletion was performed by incubating freshly recovered spleen cells for 30 min at 37° C. in the presence of anti-Thy 1.2 monoclonal antibody (Cedarlane) and rabbit complement (Cedarlane). In order to rule out a possible mitogenic effect due to LPS contamination in samples, proliferation assays were also performed on freshly recovered splenocytes from the LPS non-responder mouse strain C3H/Hej. Same levels of proliferation were verified. Balb/c mice were purchased from Charles River, France. C3H/Hej mice were maintained in our animal facilities.
In vitro proliferation is accomplished using freshly recovered splenocytes from BALB/c mice seeded at a density of 5×10^4 cells/well and incubated for 24, 48 and 72 h with increasing concentrations of total parasite supernatants or recombinant TcPa45 protein or other mitogen (0.07-200 μg/ml) with 0.5 μg/ml of the HPLC fractions, or with the conventionally used mitogens concanavalin A (10 μg/ml) and lipopolysaccharide (5 μg/ml) in 5% FCS in RPMI-1640 complete medium. T-cell depletion is accomplished by incubating freshly recovered spleen cells for 30 min. at 37° C. in the presence of monoclonal antibodies against Thy 1.2 and rabbit complement (Cedarlane, Le Perray en Yvelines, France). Analysis of proliferative activity of total splenocytes (5×10^4 cells/well) in the presence of 50 μg/ml enzymatically active rTcPA45 or other mitogen is also compared with the proliferation obtained using the same amounts of rTcPA45 protein or other mitogen lacking racemase activity (by heating for 10 min. at […] or by long term storage at 4° C.). Inhibition of proliferation is obtained by adding to the splenocyte cultures 50 μg/ml rTcPA45 or other mitogen pre-incubated for 10 min. at 37° C. with 1 mM inhibitor, either specific (pyrrole-2-carboxylic acid) or nonspecific (iodoacetamide or iodoacetate). Competitive assays of proliferative activity by 50 μg/ml rtcPA45 or other mitogen are done by adding increasing concentrations of specific substrates i.e., proline racemase substrates (L- or D-proline) for the mitogen rTcPA45 ranging from 3 mM to 50 mM. Controls include the incubation of splenocytes (5×10^4 cells/well) with substrate alone, i.e., 50 mM L- or D-proline in RPMI medium alone for prline racemase. Cultures are collected after a 16-hour pulse or 1 μCi/well ^3H-thymidine uptake was determined in a beta-plate liquid scintillation counter (LKB-Wallac, Orsay, France). All data points are obtained in triplicate and the corresponding standard deviation is calculated.
5×10^5 naive spleen cells/well (96 well plate) were stimulated in vitro with different doses of rTcPA45 (ranging in FIG. 4b from 0.8 to 200 μg/ml final) for 24, 48 and 72 h, at 37° C., 5% CO2. Cultures were pulsed with ^3H-Thymidine (1 μCi/well) for 16-18 h before harvesting. ^3H-thymidine incorporation was obtained after counting using a beta-plate. Results present arithmetic means of c.p.m. (counts/minute) from 6 wells/dose of rTcPA45 or wells containing medium alone (+/−SD of the means). (FIG. 4b)

[1] abbreviates: pH 6, 3 μg rTcPA45, 30 min at 37° C.
[2] abbreviates: spleen lymphocytes, up to 72 h culture.

B1: rTcPA45: recombinant T. cruzi polyclonal activator 45, B-cell mitogen and proline racemase, codons 30-423 with C-terminal 6×His tag, from E. coli (protein)
chain: RTGQEKLLFDQKYKIIKGEKKEKKKNQRANRREHQQKREIMRFKKSFTCIDMHTEGEAARIVTSGLPHIPGSNMAEKKAYLQENMDYLRRGIMLEPRGHDDMFGAFLFDPIEEGADLGMVFMDTGGYLNMCGHNSIAAVTAAVETGIVSVPAKATNVPVVLDTPAGLVRGTAHLQSGTESEVSNASIINVPSFLYQQDVVVVLPKPYGEVRVDIAFGGNFFAIVPAEQLGIDISVQNLSRLQEAGELLRTEINRSVKVQHPQLPHINTVDCVEIYGPPTNPEANYKNVVIFGNRQADRSPCGTGTSAKMATLYAKGQLRIGETFVYESILGSLFQGRVLGEERIPGVKVPVTKDAEEGMLVVTAEITGKAFIMGFNTMLFDPTDPFKNGFTLKQ
modifications: left off: small tags and cut ends
Regarding B1, the “pH of maximal proline racemase activity” value with rTcPA45 proline racemase (80 mM L-proline, buffers pH 4.0-8.2) is 6. The “enzyme stability to heating” value with rTcPA45 proline racemase (10 min heating at 80° C.) was “inactivated”. In the data set with rTcPA45 proline racemase (setting [1]), the “racemisation of L- and D-proline substrates” value is listed as “racemises”; the “racemisation of L- or D-hydroxy-proline and other natural L-amino acids” value was “not”. Moreover, the “optimal temperature for enzymatic activity” value with rTcPA45 proline racemase (tested between 27° C. and 47° C.) was 37 °C. Besides, the “mitogenic activity of inactivated rTcPA45” value in the data set on total spleen cells (inactivated by being heated or by long storage at 4° C.) is “abolished”. Also, in the data set on total spleen cells (setting [2]), the “concentration at which proliferation peaks (bell-shaped dose-response curve)” value was 50 µg/mL and the “concentration from which proliferation starts (bell-shaped dose-response curve)” value came to 0.8 µg/mL.
